This is an account of results in publication PMC11683240.

A word on the IC50: it is the concentration that inhibits the measured activity by half. Lower therefore signals inhibition by little substance.

For assay [1], the target named is Bordetella pertussis toxin (PT) holotoxin (Bordetella pertussis) (UniProt P04977). The assay is described as follows: FACS. The conditions noted are these: natural protein.
The target is the same in assay [2]. The assay is described as follows: FACS. The conditions noted are these: natural protein. The source holds these as a separate data set.

Chain of α1-antitrypsin (Prolastin, plasma-derived) (P01009 25-418): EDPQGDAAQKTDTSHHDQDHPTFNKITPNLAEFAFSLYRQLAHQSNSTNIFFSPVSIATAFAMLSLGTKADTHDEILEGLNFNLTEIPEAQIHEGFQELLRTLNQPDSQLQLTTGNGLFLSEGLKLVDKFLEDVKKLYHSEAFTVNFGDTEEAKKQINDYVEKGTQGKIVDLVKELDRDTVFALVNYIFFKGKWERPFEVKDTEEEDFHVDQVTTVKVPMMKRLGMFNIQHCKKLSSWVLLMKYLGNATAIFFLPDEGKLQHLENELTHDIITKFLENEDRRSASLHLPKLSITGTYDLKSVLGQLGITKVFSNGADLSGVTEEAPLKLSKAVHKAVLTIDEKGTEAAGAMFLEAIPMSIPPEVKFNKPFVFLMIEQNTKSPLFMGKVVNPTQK

Consider “α1-antitrypsin (Prolastin, plasma-derived) (from UniProt P01009 25-418)”, for which the IC50 in assay [1] worked out at 796 nM; in assay [2], 1720 nM.
